# ± gives the uncertainty stated by the source.
# Experiment: self-splicing fitness, log relative to wild type (ln ratio); higher = more splicing; Tetrahymena group I intron in knt gene, E. coli kanamycin selection, DiMSum; sequences stand for … in CUCUCU…GGAGGGAAAAGUUAUCAGGCAUGCACCUGGUAGCUAGUCUUUAAACCAAUAGAUUGCAUCGGUUUAAAAGGCAAGACCGUCAAAUUGCGGGAAAGGGGUCAACAGCCGUUCAGUACCAAGUCUCAGGGGAAACUUUGAGAUGGCCUUGCAAAGGGUAUGGUAAUAAGCUGACGGACAUGGUCCUAACCACGCAGCCAAGUCCUAAGUCAACAGAUCUUCUGUUGAUAUGGAUGCAGUUCACAGACUAAAUGUCGGUCGGGGAAGAUGUAUUCUUCUCAUAAGAUAUAGUCGGACCUCUCCUUAAUGGGAGCUAGCGGAUGAAGUGAUGCAACACUGGAGCCGCUGGGAACUAAUUUGUAUGCGAAAGUAUAUUGAUUAGUUUUGGAGUACUCGUGGUCG
# How it was run: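 Pooled colonies went to amplicon sequencing on an Illumina HiSeq 2500 after six replicate transformations. The plates were LB agar with 100 μg/mL carbenicillin, 50 μM IPTG and 0.2% rhamnose, with or without 25 μg/mL kanamycin, incubated overnight at 37°C or 30°C. The E. coli BL21(DE3) library had all eight P1ex-region intron nucleotides randomised, the intron placed in the knt kanamycin-resistance gene on pET-22b(+). DiMSum fitness is the error-weighted combination of replicate fold changes, kanamycin against none, normalised to wild type.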
Sequence,self-splicing fitness (ln) (30 °C),self-splicing fitness (ln) (37 °C)
GAUUAGCAAUAUUACGCGGU,-3.5 ± 0.47,-3.43 ± 0.33
CAGGAGCAAUAUUACGUGGA,-3.47 ± 0.2,-3.3 ± 0.26
GACGAGCAAUAUUACGUCUG,-3.64 ± 0.22,-2.53 ± 0.2
GAAGAGCAAUAUUACGAUAC,-2.75 ± 0.39,–
UAUCAGCAAUAUUACGAGGU,-2.73 ± 0.28,-3.78 ± 0.37
AUACAGCAAUAUUACGCGUC,-3.72 ± 0.14,-2.6 ± 0.13
CGGCAGCAAUAUUACGAUCU,-0.274 ± 0.084,0.148 ± 0.11
CCUAAGCAAUAUUACGACAU,-3.909 ± 0.025,-2.82 ± 0.038
AUUGAGCAAUAUUACGUGGC,-3.45 ± 0.16,-3.69 ± 0.3
AUCGAGCAAUAUUACGGUAU,-2.46 ± 0.13,-1.12 ± 0.11
GGCGAGCAAUAUUACGGGUG,-2.31 ± 0.12,-1.96 ± 0.14
GCUGAGCAAUAUUACGGAAU,-3.57 ± 0.25,-1.3 ± 0.17
AGAUAGCAAUAUUACGUUUG,-3.06 ± 0.23,-1.21 ± 0.17
AGAAAGCAAUAUUACGGAUA,-2.15 ± 0.15,-1.77 ± 0.15
CUCUAGCAAUAUUACGGCAU,-4.62 ± 0.39,-3.62 ± 0.42
AGAGAGCAAUAUUACGGUAU,-3.91 ± 0.37,-3.55 ± 0.29
UGGCAGCAAUAUUACGCUGU,-2.97 ± 0.15,-2.18 ± 0.21
AUUCAGCAAUAUUACGGUAC,-2.27 ± 0.11,-0.675 ± 0.094
UUUCAGCAAUAUUACGGAUG,-0.64 ± 0.064,0.256 ± 0.096
ACAAAGCAAUAUUACGUAAA,-2.08 ± 0.069,-0.302 ± 0.092
AUAUAGCAAUAUUACGACUG,-1.47 ± 0.14,-1.65 ± 0.21
CGUGAGCAAUAUUACGAUAU,-2.77 ± 0.14,-2.71 ± 0.23
ACCAAGCAAUAUUACGAUAC,-2.83 ± 0.32,-1.99 ± 0.3
GAGUAGCAAUAUUACGUUAC,-4.57 ± 0.33,-1.57 ± 0.17
CGUGAGCAAUAUUACGUGGU,-3.02 ± 0.17,-2.42 ± 0.22

Sequence,self-splicing fitness (ln) (30 °C),self-splicing fitness (ln) (37 °C)
GUCAAGCAAUAUUACGUGAU,-4.06 ± 0.23,-3.23 ± 0.27
CUACAGCAAUAUUACGAGGC,–,-1.35 ± 0.3
CGACAGCAAUAUUACGUGGC,-3.68 ± 0.28,-3.29 ± 0.26
ACUUAGCAAUAUUACGAGCG,-1.14 ± 0.096,0.122 ± 0.1
GUCCAGCAAUAUUACGGAGA,-0.714 ± 0.096,0.585 ± 0.11
GGCAAGCAAUAUUACGCCUC,-2.03 ± 0.13,-1.34 ± 0.12
CCAGAGCAAUAUUACGUGGC,-1.95 ± 0.18,-3.77 ± 0.39
AGUUAGCAAUAUUACGAAGG,-4.03 ± 0.22,-3.4 ± 0.28
ACAAAGCAAUAUUACGCGUA,-1.4 ± 0.099,-0.512 ± 0.097
UAUGAGCAAUAUUACGAACU,–,-1.57 ± 0.26
GUGAAGCAAUAUUACGACCC,-1.04 ± 0.43,0.469 ± 0.33
CAGGAGCAAUAUUACGUCAU,–,-1.89 ± 0.33
AAAUAGCAAUAUUACGGUAC,-3.61 ± 0.25,-2.6 ± 0.3
GACGAGCAAUAUUACGCUAG,-3.19 ± 0.19,-2.47 ± 0.18
CAGCAGCAAUAUUACGUAUG,-2.19 ± 0.1,-2.5 ± 0.15
GGUAAGCAAUAUUACGCGUC,-1.95 ± 0.2,0.649 ± 0.18
AACGAGCAAUAUUACGCGAU,-3.04 ± 0.26,-1.99 ± 0.3
CUACAGCAAUAUUACGCGUC,-3.92 ± 0.26,-2.77 ± 0.24
UCGUAGCAAUAUUACGAGGC,-0.464 ± 0.44,–
UAGGAGCAAUAUUACGGUUG,-3.11 ± 0.36,-2.4 ± 0.24
CCAUAGCAAUAUUACGCAAU,-3.67 ± 0.15,-2.64 ± 0.15
CGACAGCAAUAUUACGUUUC,-3.98 ± 0.24,-2.23 ± 0.15
UCCCAGCAAUAUUACGUCAU,-4.04 ± 0.2,-2.09 ± 0.18
AGCCAGCAAUAUUACGUGUG,-3.01 ± 0.09,-1.61 ± 0.086
